Publication PMC4636849

Tested on: H-NS
Assay: EMSA
Details: EMSA: ~5 ng DNA, 50 ng poly(dI-dC), 15 ul, 20 C 10 min; binding buffer not stated (cited); 7% polyacrylamide gel in TAE (Tris-HCl 40 mM pH 7.4, Na acetate …)

Substance: mdtJI promoter fragment, 588 bp (-229 to +359)
- K half: 320 nM
